Data on 58 variants can be found in the Human Domainome abundance scans (Beltran et al. 2025).

B1: Zinc finger MYM-type protein 2, residues 463 to 506; numbered along this chain, Q9UBW7 (parent)
chain: IMNCCEQCGEYLPSKGAGNNVLVIDGQQKRFCCQSCVSEYKQVG

± gives the uncertainty stated by the source.

Variants of B1 are the subject of this data set. As to the kind of experiment: abundance fitness (aPCA) (normalised: wild type 0, dead -1); higher = more abundant; growth selection in yeast, the domain comes from the species named. Conditions: Homo sapiens.
As for IMNCCEQCGEYLPSMGAGNNVLVIDGQQKRFCCQSCVSEYKQVG [K15M], the abundance fitness came to 0.3 ± 0.19.

For IMNCCEQCGEYLPSCGAGNNVLVIDGQQKRFCCQSCVSEYKQVG [K15C], the abundance fitness was -0.012 ± 0.092.

As for IMNCCEQCGEYLPSHGAGNNVLVIDGQQKRFCCQSCVSEYKQVG [K15H], the abundance fitness turned out to be 0.119 ± 0.15.

Take IMNCCEQCGEYLPSKGAGNNVLVIDGQQKRFCCDSCVSEYKQVG [Q34D]: the abundance fitness is 0.013 ± 0.12.

As for IMNCCEQCGEYLPSKGAGNNVLVIDGQQKRFCCESCVSEYKQVG [Q34E], the abundance fitness is 0.087 ± 0.12.

Take IMNCCEQCGHYLPSKGAGNNVLVIDGQQKRFCCQSCVSEYKQVG [E10H]: the abundance fitness was -0.224 ± 0.27.

As for IMNCCEQCGLYLPSKGAGNNVLVIDGQQKRFCCQSCVSEYKQVG [E10L], the abundance fitness was -1.08 ± 0.15.

Consider IMNCCEQCGDYLPSKGAGNNVLVIDGQQKRFCCQSCVSEYKQVG [E10D], for which the abundance fitness is -0.197 ± 0.1.

IMNCCEQCGSYLPSKGAGNNVLVIDGQQKRFCCQSCVSEYKQVG [E10S]: the abundance fitness is -0.358 ± 0.14.

Consider IMNDCEQCGEYLPSKGAGNNVLVIDGQQKRFCCQSCVSEYKQVG [C4D], for which the abundance fitness is -0.007 ± 0.12.

For the variant IMNSCEQCGEYLPSKGAGNNVLVIDGQQKRFCCQSCVSEYKQVG [C4S], the abundance fitness turned out to be 0.25 ± 0.11.

Regarding IMNGCEQCGEYLPSKGAGNNVLVIDGQQKRFCCQSCVSEYKQVG [C4G], the abundance fitness was -0.089 ± 0.072.

Take ITNCCEQCGEYLPSKGAGNNVLVIDGQQKRFCCQSCVSEYKQVG [M2T]: the abundance fitness is -0.059 ± 0.097.

With ICNCCEQCGEYLPSKGAGNNVLVIDGQQKRFCCQSCVSEYKQVG [M2C], the abundance fitness was -0.286 ± 0.13.

IMNCCEYCGEYLPSKGAGNNVLVIDGQQKRFCCQSCVSEYKQVG [Q7Y]: the abundance fitness was -0.222 ± 0.13.

On to IMNCCELCGEYLPSKGAGNNVLVIDGQQKRFCCQSCVSEYKQVG [Q7L], for which the abundance fitness is -0.226 ± 0.076.

With IMNCCECCGEYLPSKGAGNNVLVIDGQQKRFCCQSCVSEYKQVG [Q7C], the abundance fitness is -0.034 ± 0.14.

As for IMNCCEQCGEYLPSKGAGNNVLVIDGQQKRFCCQSQVSEYKQVG [C36Q], the abundance fitness is -0.201 ± 0.098.

Turning to IMNCCEQCGEYLPSKGAGNNVLVIDGQQKSFCCQSCVSEYKQVG [R30S], the abundance fitness amounted to 0.111 ± 0.1.

In the case of IMNCCEQCGEYLPSKGAGNNVLVIDGQQKLFCCQSCVSEYKQVG [R30L], the abundance fitness worked out at 0.177 ± 0.069.

With IMNCCEQCGEYLPSKGAGNLVLVIDGQQKRFCCQSCVSEYKQVG [N20L], the abundance fitness is -0.103 ± 0.1.

For the variant IMNCCEQCGEYLPSKGAGNYVLVIDGQQKRFCCQSCVSEYKQVG [N20Y], the abundance fitness was -0.065 ± 0.12.

For the variant IMNCCEQCGEYLPSKGAGNCVLVIDGQQKRFCCQSCVSEYKQVG [N20C], the abundance fitness was determined as 0 ± 0.11.

Take IMNCCEQCGEYLPSKGAGNNVLVIDGQQKRFCCQSCSSEYKQVG [V37S]: the abundance fitness was -0.161 ± 0.099.

As to IMNCCEQCGEYLPSKGAGNNVLVIDGQQKRFCCQSCASEYKQVG [V37A], the abundance fitness was -0.063 ± 0.083.

With IMNCCEQCGEYLPSKGAGNNVLVIDGQQKRFCCQSCGSEYKQVG [V37G], the abundance fitness was -0.226 ± 0.075.

On to IMNCCEQCGEYCPSKGAGNNVLVIDGQQKRFCCQSCVSEYKQVG [L12C], for which the abundance fitness is -0.384 ± 0.11.

As for IMNCCEQCGEYDPSKGAGNNVLVIDGQQKRFCCQSCVSEYKQVG [L12D], the abundance fitness is -0.174 ± 0.11.

Take IMNCCEQCGEYPPSKGAGNNVLVIDGQQKRFCCQSCVSEYKQVG [L12P]: the abundance fitness was -0.14 ± 0.11.

Regarding IMNCCEQCGEYSPSKGAGNNVLVIDGQQKRFCCQSCVSEYKQVG [L12S], the abundance fitness is -0.501 ± 0.13.

IMNCCEQCGEYWPSKGAGNNVLVIDGQQKRFCCQSCVSEYKQVG [L12W]: the abundance fitness is -0.467 ± 0.089.

In the case of IMNCCEQCGEYLPSKGAGNNVLVIDGQGKRFCCQSCVSEYKQVG [Q28G], the abundance fitness is -0.239 ± 0.072.

With IMNCCEQCGEYLPSKGAGNNVLVIDGQCKRFCCQSCVSEYKQVG [Q28C], the abundance fitness is -0.47 ± 0.15.

On to IMNCCEQCGEYLPSKGAGNNVLVIDGQNKRFCCQSCVSEYKQVG [Q28N], for which the abundance fitness is -0.29 ± 0.18.

On to IMNCCEQCGEYLPSKGAGNNVLVIDGQDKRFCCQSCVSEYKQVG [Q28D], for which the abundance fitness came out at 0.189 ± 0.22.

On to IMNCCEQCGEYLPSKGAGNNVLVIDGQAKRFCCQSCVSEYKQVG [Q28A], for which the abundance fitness is -0.133 ± 0.086.

In the case of IMNCCEQCGELLPSKGAGNNVLVIDGQQKRFCCQSCVSEYKQVG [Y11L], the abundance fitness was 0.034 ± 0.1.

Regarding IMNCCEQCGEMLPSKGAGNNVLVIDGQQKRFCCQSCVSEYKQVG [Y11M], the abundance fitness was -0.099 ± 0.12.

In the case of IMNCCEQCGEYLPSKGAGCNVLVIDGQQKRFCCQSCVSEYKQVG [N19C], the abundance fitness was -0.069 ± 0.12.

Take IMNCCEQCGEYLPSKGAGNNVLVIDGQQKRFCCQSCVSEYKAVG [Q42A]: the abundance fitness is 0.109 ± 0.078.

As for IMNCCEQCGEYLPSKGAGNNVLVIDGQQKRFCCQSCVSEYKRVG [Q42R], the abundance fitness was 0.063 ± 0.072.

Consider IMNCCEQCGEYLPSKGAGNNVLVIDGQQKRFCCQSCVSEYKTVG [Q42T], for which the abundance fitness stood at 0.002 ± 0.11.

Turning to IMNCCEQCGEYLPSKGAGNNVLVIQGQQKRFCCQSCVSEYKQVG [D25Q], the abundance fitness is -0.367 ± 0.17.

In the case of IMNCCEQCGEYLPSKGAGNNVLVIVGQQKRFCCQSCVSEYKQVG [D25V], the abundance fitness was -0.51 ± 0.094.

Take IMNCCEQCGEYLPSKGAGNNVLVIKGQQKRFCCQSCVSEYKQVG [D25K]: the abundance fitness was -0.155 ± 0.14.

IMNCCEQCGEYLPSKGAGNNVLVISGQQKRFCCQSCVSEYKQVG [D25S]: the abundance fitness was -0.279 ± 0.14.

On to IMNCCEQCGEYLPSKGAGNNVLVILGQQKRFCCQSCVSEYKQVG [D25L], for which the abundance fitness is -0.455 ± 0.13.

Turning to IMNCCEQCGEYLPSKGAGNNVLVIEGQQKRFCCQSCVSEYKQVG [D25E], the abundance fitness is -0.11 ± 0.085.

For the variant IMNCCEQCGEYLPSKGAGNNVLVIFGQQKRFCCQSCVSEYKQVG [D25F], the abundance fitness is -0.174 ± 0.16.

With IMNCCEQCGEYLPSKGAGNNVLVIDGQQCRFCCQSCVSEYKQVG [K29C], the abundance fitness is -0.752 ± 0.26.

Take IMNCCEQCGEYLPSKGAGNNVLVIDGQQHRFCCQSCVSEYKQVG [K29H]: the abundance fitness was 0.051 ± 0.086.

For IMNCCEQCGEYLPSKGAGNNVLVIDGQQERFCCQSCVSEYKQVG [K29E], the abundance fitness was -0.231 ± 0.14.

On to IMNCCEQCGEYLPSKGAGNNVLVIDGQQPRFCCQSCVSEYKQVG [K29P], for which the abundance fitness is -0.499 ± 0.12.

Regarding IMNCCEQCGEYLPSKGAGNNVLVIDGQQKRFCCQSCVSEYKQVT [G44T], the abundance fitness is -0.118 ± 0.096.

Take IMNCCEQCGEYLPSKGAGNNVLVIDGQQKRFCCQSCVSEYKQVC [G44C]: the abundance fitness was -0.157 ± 0.11.

For the variant IMNCCEQCGEYLPSKPAGNNVLVIDGQQKRFCCQSCVSEYKQVG [G16P], the abundance fitness is -0.175 ± 0.14.

Take IMNCCEQCGEYLPSKEAGNNVLVIDGQQKRFCCQSCVSEYKQVG [G16E]: the abundance fitness is 0.136 ± 0.11.

IMNCCEQCGEYLPSKTAGNNVLVIDGQQKRFCCQSCVSEYKQVG [G16T]: the abundance fitness was determined as 0.202 ± 0.18.
